From patent US10100114B2, “Antibodies specific for TROP-2 and their uses” (RINAT NEUROSCIENCE CORP., priority 2011, dated 2018) come the findings set out here.

Usually IC50 stands for the concentration that inhibits the measured activity by half.

Experiment [1] relates to SW620 cells (Trop-2 non-expressing). Nature of the experiment: Cytotoxicity of ADCs (CellTiter-Glo), SW620. It counts as cell-based. As to conditions: Table 13; SW620, Trop2 expression −; 96 hours; concentration of total Ab. As to the method: Target expressing (A431, BxPC3, CAPAN-2 and Colo205) or non-expressing (SW620) cells were seeded on white walled clear bottom plates at 2000 cells/well for 24 hours before treatment. Cells were treated with 4 fold serially diluted antibody-drug conjugates in triplicates. Cell viability was determined by CellTiter-Glo® Luminescent Cell Viability Assay 96 (Promega, Madison Wis.) 96 hours after treatment. Relative cell viability was determined as percentage of untreated control. IC50 was calculated by Prism software.
2-methylalanyl-N-[(3R,4S,5S)-3-methoxy-1-{(2S)-2-[(1R,2R)-1-methoxy-2-methyl-3-oxo-3-{[(1S)-2-phenyl-1-(1,3-thiazol-2-yl)ethyl]amino}propyl]pyrrolidin-1-yl}-5-methyl-1-oxoheptan-4-yl]-N-methyl-L-valinamide is a novel auristatin, as described in U.S. Application Nos. 61/561,255 and 61/676,423. Method of conjugating Trop-2 antibodies using transglutaminase tags is described in Example 9. Target expressing or non-expressing (SW620) cells were seeded on white walled clear bottom plates at 2000 (A431, BxPC3, NCI-H292, NCI-H1650, MDA-MB-468 and SW620), 2500 (Calu-3) or 3000 (OVCAR3 and SKBR3) cells per well for 24 hours before treatment. Cells were treated with 4 fold serially diluted antibody-drug conjugates in triplicates. Cell viability was determined by CellTiter-Glo® Luminescent Cell Viability Assay 96 (Promega, Madison, Wis.) 96 hours after treatment. Relative cell viability was determined as percentage of untreated control. IC50 was calculated by GraphPad Prism 5 software and expressed as concentration (nM) of total Ab.
For orientation: ATP-based viability assays read luminescence as a measure of living cells.

A further experiment has as its system Colo205 xenograft. Nature of the experiment: In vivo efficacy of Trop-2 ADCs, colorectal tumor Colo205 xenograft model. Details: species or system nu/nu mice. Conditions: single dose of 6 mg/kg, tail vein; FIG. 10. Here is the method:
In vivo efficacy study of Trop-2 ADCs was performed with target-expressing colo205 xenograft model. Three millions of colo205 colon cancer cells were implanted subcutaneously into 5-8 weeks old nu/nu mice until the tumor sizes reached ˜300 mm^3. […] Tumor volume is measured once a week by a Caliper device and calculated with the following formula: Tumor volume=(length×width^2)/2. Studies were terminated before their tumor volumes reached 2000 mm^3.

In a further experiment the target is T1, human Trop-2-hFc (Homo sapiens, UniProt P09758).
T1 construct: Monomeric Trop-2 extracellular domain prepared from papain digestion of Trop-2-Fc fusion protein
T1 sequence (P09758 27-274 limits assumed): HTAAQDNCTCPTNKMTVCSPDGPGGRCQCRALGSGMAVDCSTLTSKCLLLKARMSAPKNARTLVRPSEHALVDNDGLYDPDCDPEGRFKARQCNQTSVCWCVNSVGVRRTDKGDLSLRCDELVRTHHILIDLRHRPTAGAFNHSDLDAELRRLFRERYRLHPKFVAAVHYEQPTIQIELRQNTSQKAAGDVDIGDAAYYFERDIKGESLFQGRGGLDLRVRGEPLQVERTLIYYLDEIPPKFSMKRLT
Nature of the experiment: Biacore SPR affinity of chimeric and humanized 7E6 Fab, human Trop-2. It is filed as binding. As to conditions: recombinant Fab fragments injected over captured human Trop-2-hFc. An excerpt:
(§1) The human Trop-2-hFc or cynomolgus monkey Trop-2-hFc proteins were captured on the CM5 EDA chip 37 sensor surface coupled with anti-human Fc.

Experiment [2] concerns cynomolgus monkey Trop-2-hFc. Briefly: Biacore SPR affinity of chimeric and humanized 7E6 Fab, cynomolgus Trop-2. It counts as binding. Conditions: recombinant Fab fragments injected over captured cynomolgus monkey Trop-2-hFc.
Excerpt: as §1
A general note: In SPR one partner is held on a chip, and binding of the other changes the refractive index at the surface.

A further experiment deals with T2, human Trop2-ECD (Homo sapiens, UniProt P09758).
T2 sequence (P09758 27-274 limits assumed): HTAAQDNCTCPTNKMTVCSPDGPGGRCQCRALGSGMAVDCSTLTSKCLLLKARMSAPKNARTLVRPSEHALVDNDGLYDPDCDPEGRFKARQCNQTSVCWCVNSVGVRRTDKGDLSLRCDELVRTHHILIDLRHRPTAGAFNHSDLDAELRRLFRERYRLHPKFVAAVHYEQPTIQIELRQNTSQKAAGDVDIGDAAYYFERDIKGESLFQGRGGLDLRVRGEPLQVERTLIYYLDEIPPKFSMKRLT
Briefly: Proteon XPR36 SPR of Fab/human Trop2-ECD interactions. It is filed as binding. Conditions: amine-coupled Fab; monovalent human Trop2-ECD 6, 30 and 150 nM; 25° C., pH 7.4. Here is the method:
Analysis of Fab/human Trop2-ECD (Extracellular Domain) interactions was performed using a Bio-Rad Proteon XPR36 Surface Plasmon Resonance (SPR) biosensor (Bio-Rad, Hercules, Calif.) equipped with a GLC sensor chip. The assay temperature was 25° C., and the assay buffer was 10 mM Sodium Phosphate, 150 mM NaCl, 0.05% Tween-20, pH 7.4. An array of amine-coupled Fabs was prepared using the methodology described in Abdiche et al. (Anal. Biochem., 411: 139-151 (2011)). In each analysis cycle, monovalent human Trop2-ECD antigen was flowed at 30 μL/min over the immobilized Fabs for 3 minutes followed by a buffer wash for 15 minutes to monitor dissociation of the Fab/Trop2 complex. The sensor surface was regenerated between analysis cycles, using three 18-second injections of a 2:1 mixture (by volume) of Pierce IgG Elution buffer:4 M NaCl (Pierce, Rockford, Ill.). Binding and regeneration cycles were repeated at human Trop2-ECD concentrations of 6, 30 and 150 nM. The resulting data were fit to a 1:1 Langmuir binding model using the Proteon evaluation software.

The subject of another experiment is SW620 (Trop-2 −) cells. Briefly: Flow cytometry binding, SW620 cells. Conditions: Table 10, 300,000 cells, 1 ug antibody. It is filed as cell-based. Here is the method:
For A431 cell staining, 200,000 cells were incubated with 0.5 ug antibody in 100 uL binding buffer (PBS (Phosphate Buffered Saline)+0.5% BSA (Bovine Serum Albumin)), followed by incubation with Dylight488-conjugated goat anti-human (Fab′)2-specific secondary antibody from Jackson immunoresearch Laboratories (West Grove, Pa.). For Colo205 and SW620 cells, 300,000 cells were used with 1 ug of primary antibody, followed by AlexaFluor 647 anti-human (Fab′)2-specific secondary antibody from Jackson immunoresearch Laboratories (West Grove, Pa.).
Similar to Example 7a), binding of chimeric mouse and humanized anti-Trop-2 6G11 antibodies (expressed in human IgG1 subtype) were assessed on Trop-2 expressing (A431 and Colo205) and non-expressing (SW620) cells by flow cytometry. 300,000 cells were used with 1 ug of primary antibody, followed by AlexaFluor 647 anti-human (Fab′)2-specific secondary antibody.
For orientation: Flow cytometry measures light scatter and fluorescence of single cells or particles in a stream.

B1: h7E6SVG-LCQ03/K222R-vc0101: h7E6SVG K222R with light chain LCQ03 tag (SEQ ID NO: 78) conjugated with AcLys-vc-PABC-0101 (conjugate)
VH: QVQLQESGPGLVKPSETLSLTCTVSGGSISSYGVHWIRQPPGKGLEWIGVIWTSGVTDYNSALMGRVTISVDTSKNQFSLKLSSVTAADTAVYYCARDGDYDRYTMDYWGQGTLVTVSS
VL: DIVMTQSPDSLAVSLGERATINCRASKSVSTSGYSYMHWYQQKPGQPPKLLIYLASNLESGVPDRFSGSGSGTDFTLTISSLQAEDVAVYYCQHSRELPYTFGQGTKLEIK
B1 yielded an IC50 in experiment [1] of more than 267 nM. Also, the “tumor response, Colo205 xenograft” value with Colo205 xenograft is “tumor regression”.

B2: h7E6_SVG: humanized anti-Trop-2 antibody, VL SEQ ID NO: 3, VH SEQ ID NO: 5 (antibody, V domains shown)
VH: QVQLQESGPGLVKPSETLSLTCTVSGGSISSYGVHWIRQPPGKGLEWIGVIWTSGVTDYNSALMGRVTISVDTSKNQFSLKLSSVTAADTAVYYCARDGDYDRYTMDYWGQGTLVTVSS
VL: DIVMTQSPDSLAVSLGERATINCRASKSVSTSGYSYMHWYQQKPGQPPKLLIYLASNLESGVPDRFSGSGSGTDFTLTISSLQAEDVAVYYCQHSRELPYTFGQGTKLEIK
For the molecule B2, the “ka” value in the experiment with human Trop-2-hFc was 97600 M⁻¹ s⁻¹; in experiment [2] it was 265000 M⁻¹ s⁻¹; with human Trop2-ECD, 170000 M⁻¹ s⁻¹. In addition, the “kd” value turned out to be 0.000435 s⁻¹ with human Trop-2-hFc, 0.00189 s⁻¹ in experiment [2] and 0.00069 s⁻¹ with human Trop2-ECD. The “% positive” value in the experiment on SW620 (Trop-2 −) cells turned out to be 2.4%. Also, the MFI with SW620 (Trop-2 −) cells turned out to be 139.
